# Data taken from patent US20250049894A1, “TREATMENT OF NUDT2 MUTATION” (UNIVERSITÉ DE GENÈVE, priority 2021, published 2025).
# B1: 6×His-SUMO-tagged human NUDT2: recombinant full-length human NUDT2 with the larger 6×-His-SUMO tag (protein, UniProt P50583 1-147, looked up)
# chain: MALRACGLIIFRRCLIPKVDNNAIEFLLLQASDGIHHWTPPKGHVEPGEDDLETALRETQEEAGIEAGQLTIIEGFKRELNYVARNKPKTVIYWLAEVKDYDVEIRLSHEHQAYRWLGLEEACQLAQFKEMKAALQEGHQFLCSIEA
# modifications: full-length 6xHis-SUMO tag
# notes: recombinant full-length human NUDT2 with the larger 6×-His-SUMO tag
# B2: nuclease P1: nuclease used to hydrolyze RNAs prior to mass spectrometry (protein, UniProt P24289 1-270, looked up)
# Nuclease P1: WGALGHATVAYVAQHYVSPEAASWAQGILGSSSSSYLASIASWADEYRLTSAGKWSASLHFIDAEDNPPTNCNVDYERDCGSSGCSISAIANYTQRVSDSSLSSENHAEALRFLVHFIGDMTQPLHDEAYAVGGNKINVTFDGYHDNLHSDWDTYMPQKLIGGHALSDAESWAKTLVQNIESGNYTAQAIGWIKGDNISEPITTATRWASDANALVCTVVMPHGAAALQTGDLYPTYYDSVIDTIELQIAKGGYRLANWINEIHGSEIAK
# B3: NUDT12: recombinant untagged full-length human NUDT12 (protein, UniProt Q9BQG2 1-462, looked up)
# chain: MSSVKRSLKQEIVTQFHCSAAEGDIAKLTGILSHSPSLLNETSENGWTALMYAARNGHPEIVQFLLEKGCDRSIVNKSRQTALDIAVFWGYKHIANLLATAKGGKKPWFLTNEVEECENYFSKTLLDRKSEKRNNSDWLLAKESHPATVFILFSDLNPLVTLGGNKESFQQPEVRLCQLNYTDIKDYLAQPEKITLIFLGVELEIKDKLLNYAGEVPREEEDGLVAWFALGIDPIAAEEFKQRHENCYFLHPPMPALLQLKEKEAGVVAQARSVLAWHSRYKFCPTCGNATKIEEGGYKRLCLKEDCPSLNGVHNTSYPRVDPVVIMQVIHPDGTKCLLGRQKRFPPGMFTCLAGFIEPGETIEDAVRREVEEESGVKVGHVQYVACQPWPMPSSLMIGCLALAVSTEIKVDKNEIEDARWFTREQVLDVLTKGKQQAFFVPPSRAIAHQLIKHWIRINPNL
# modifications: full-length
# B4: NUDT2: recombinant full-length human NUDT2, Nudix hydrolase for Ap4A (protein)
# chain: ALRACGLIIFRRHLIPKMDNSTIEFLLLQASDGIHHWTPPKGHVDPGENDLETALRETREETGIEASQLTIIEGFRRELNYVARQKPKTVIYWLAEVKDYNVEIRLSQEHQAYRWLGLEEACQLAQFKEMKATLQEGHQFLCSTPA
# Columns and labels:
# Assay type in all cases: biochemical
# m^7G-RNA = assay: In vitro m7G-RNA decapping assay (cap-labelled RNA, thin-layer chromatography); conditions: recombinant protein 250 nM to 750 nM, 37° C., 30 min, TLC
# [1] = Ap4A hydrolysis assay (32P-labelled Ap4A, thin-layer chromatography); conditions: 750 nM recombinant human NUDT2 or Nuclease P1 0.5 and 1 unit, TLC
# Protocol: To prepare radioactive Ap4A, we incubated 60 μCi of radioactive α-^32P-ATP (Perkin Elmer, Cat. no. BLU003X250UC; 75 fmol in 20 ul or 3.75 nM concentration) with 1 μM recombinant human Lys-tRNA synthetase (G540Y mutant) at 37° C. overnight in a 20 μl solution [100 mM Tris-HCl, pH 8.0, 10 mM MgCl2, 0.1 mM ZnCl2, 1 mM Lysine and 0.1 units inorganic pyrophosphatase (Sigma-Aldrich, Cat. no. I1643)].
# We resolved the reaction products using thin-layer chromatography, using PEI-cellulose TLC plates (Merk, Cat. No. 1057250001) and developing it in 0.45 M (NH4)2SO4 using a glass chamber at room temperature. In addition to the ATP already present in the reaction, we see the presence of Ap4A (FIG. 9D). From this Ap4A mix (ATP and Ap4A), we obtained purified radioactive Ap4A (FIG. 9E) by HPLC (purification service kindly provided by Hartmann Analytic, Germany). For some experiments (FIG. 9F-G) we used this Ap4A mix (ATP and Ap4A). However, for most experiments (FIG. 2, FIG. 9E) the purified radioactive Ap4A was used.
# For hydrolysis assays with Ap4A (AppppA, in bold is 32P), reactions were conducted as above, but the RNA was replaced with appropriate amount of HPLC-purified Ap4A. Hydrolysis assays were conducted with 750 nM of recombinant human NUDT2 or with Nuclease P1 (0.5 unit and 1 unit). NUDT2 hydrolyzes Ap4A (AppppA, in bold is 32P) into α-^32P-AMP and α-^32P-ATP (FIG. 2D).
# Ap4A-RNA = assay: In vitro Ap4A-RNA decapping assay (cap-labelled RNA, thin-layer chromatography); conditions: recombinant protein 250 nM to 750 nM, 37° C., 30 min, TLC
# Protocol: Briefly, using the Ap4A mixture (ATP and Ap4A) or Ap4A instead of ATP for in vitro transcription by MEGAshortscript™ T7 Transcription Kit (Life technologies; Cat. No. AM1354), we produced a 50 nt RNA. Template is the same as making 50 nt RNA for MEFs transfection. Note that if the mixture is used, this nucleotide mixture (ATP and Ap4A) still has all the components (lysine, inorganic pyrophosphatase etc) added during the Ap4A synthesis. In vitro transcription reaction was carried out at 37° C. for at least 4 h in a 20 μL reaction containing 6 pmol DNA template, 2 μL 10× reaction buffer, 2 μL of nucleotides (75 mM CTP, 75 mM UTP, 75 mM GTP), 2 μL of ATP/Ap4A mixture that we produced above, and 2 μL T7 enzyme mix (MEGAshortscript™ Kit, Life technologies, Cat. No. AM1354). After that, 1 μL TURBO DNase was added and incubated at 37° C. for 15 min to remove the DNA template. Unincorporated nucleotides were removed from the RNA preparation by Microspin G-25 Column (GE Healthcare, Cat. No. 27-5325-01), and the process was repeated twice. The radioactively labelled RNA was separated by 10% urea gel. […]
# Decapping reaction products were resolved by PEI-cellulose TLC plates (Merk, Cat. No. 1057250001) and developed in 0.45 M (NH4)2SO4 in a glass chamber at room temperature. […] When required, signals were quantified by ImageQuantTL.
Molecule,m7G-RNA decapping activity (m^7G-RNA),Hydrolysis of Ap4A [1],Ap4A-RNA decapping activity (Ap4A-RNA)
B1,poorly active,,
B2,,able to efficiently hydrolyse Ap4A,
B3,,,only NUDT2 has Ap4A-RNA decapping activity
B4,can decap m^7G-RNAs,mostly asymmetrically hydrolyzed into ATP (Appp) and AMP (pA),only NUDT2 has Ap4A-RNA decapping activity
